The target in experiment [1] is T1, Exendin 4, (G4S)3, linker DOM7h-14-10 fusion (DMS7139).
T1 construct: expressed in E. coli with a cleaved OmpT AWA leader; also called DSM7139
Kind of experiment: SPR (Biacore), albumin on CM5 chip, fusion in flow.
Protocol: (§1) The analysis was performed using two CM5 chips (carboxymethylated dextran matrix) that were coated with serum albumin. ˜500 resonance units (RUs) of each serum albumin was immobilised in acetate buffer pH 4.5. The first chip had flow cell 1 uncoated and blocked and flow cell 2 was coated with MSA (560Rus). The second chip had flow cell 1 uncoated and blocked, flow cell 2 was coated with HSA, flow cell 3 was coated with CSA and flow cell 4 was coated with RSA. For all serum albumins, the aim was to coat in the region of 350 RUs of protein onto the chip.
(§2) Affinity (KD) was calculated from the BIACORE traces by fitting on-rate and off-rate curves to traces generated by concentrations of dAb in the region of the KD.

The target in experiment [2] is T2, Exendin 4, (G4S)3, linker DOM7h-11-15 fusion (DMS7143).
T2 construct: expressed in E. coli with a cleaved OmpT AWA leader
As to the kind of experiment: SPR (Biacore), albumin on CM5 chip, fusion in flow.
Protocol: as §1, §2

The target of experiment [3] is T3, Exendin 4 (G4S linker)3 DOM7h-14 dAb fusion (DAT0115).
T3 construct: also called Exendin 4 (G4S)3 DOM7h-14 fusion
Kind of experiment: SPR (Biacore), biotinylated albumin on SA chip, fusion in flow.
Protocol: The analysis was performed using a streptavidin chip (SA) coated with biotinylated serum albumin. 200-1000 resonance units (RUs) of each serum albumin was immobilised on the chip. Flow cell 1 was uncoated, flow cell 2 was coated with HSA, flow cell 3 was coated with RSA and flow cell 4 was coated with CSA.
as §2

For experiment [4], the target named is T1, Exendin 4, (G4S)3, linker DOM7h-14-10 …. As to the kind of experiment: melanophore functional GLP-1R bioassay.

B1: Cynomolgus monkey serum albumin (CSA) (other, UniProt A2V9Z4 25-608, looked up)
chain: DTHKSEVAHRFKDLGEEHFKGLVLVAFSQYLQQCPFEEHVKLVNEVTEFAKTCVADESAENCDKSLHTLFGDKLCTVATLRETYGEMADCCAKQEPERNECFLQHKDDNPNLPPLVRPEVDVMCTAFHDNEATFLKKYLYEVARRHPYFYAPELLFFAARYKAAFAECCQAADKAACLLPKLDELRDEGKASSAKQRLKCASLQKFGDRAFKAWAVARLSQKFPKAEFAEVSKLVTDLTKVHTECCHGDLLECADDRADLAKYMCENQDSISSKLKECCDKPLLEKSHCLAEVENDEMPADLPSLAADYVESKDVCKNYAEAKDVFLGMFLYEYARRHPDYSVMLLLRLAKAYEATLEKCCAAADPHECYAKVFDEFQPLVEEPQNLVKQNCELFEQLGEYKFQNALLVRYTKKVPQVSTPTLVEVSRNLGKVGAKCCKLPEAKRMPCAEDYLSVVLNRLCVLHEKTPVSEKVTKCCTESLVNRRPCFSALELDEAYVPKAFNAETFTFHADMCTLSEKEKQVKKQTALVELVKHKPKATKEQLKGVMDNFAAFVEKCCKADDKEACFAEEGPKFVAASQAALA
notes: CSA is not spelled out where it is used; also called cynomolgus serum albumin; cyno serum albumin
As for B1, the Kd in experiment [1] is 42.3 nM; in experiment [2] it was 38.9 nM; in experiment [3], 2000 nM.

B2: Rat serum albumin (RSA) (other, UniProt P02770 25-608, looked up)
chain: EAHKSEIAHRFKDLGEQHFKGLVLIAFSQYLQKCPYEEHIKLVQEVTDFAKTCVADENAENCDKSIHTLFGDKLCAIPKLRDNYGELADCCAKQEPERNECFLQHKDDNPNLPPFQRPEAEAMCTSFQENPTSFLGHYLHEVARRHPYFYAPELLYYAEKYNEVLTQCCTESDKAACLTPKLDAVKEKALVAAVRQRMKCSSMQRFGERAFKAWAVARMSQRFPNAEFAEITKLATDVTKINKECCHGDLLECADDRAELAKYMCENQATISSKLQACCDKPVLQKSQCLAEIEHDNIPADLPSIAADFVEDKEVCKNYAEAKDVFLGTFLYEYSRRHPDYSVSLLLRLAKKYEATLEKCCAEGDPPACYGTVLAEFQPLVEEPKNLVKTNCELYEKLGEYGFQNAVLVRYTQKAPQVSTPTLVEAARNLGRVGTKCCTLPEAQRLPCVEDYLSAILNRLCVLHEKTPVSEKVTKCCSGSLVERRPCFSALTVDETYVPKEFKAETFTFHSDICTLPDKEKQIKKQTALAELVKHKPKATEDQLKTVMGDFAQFVDKCCKAADKDNCFATEGPNLVARSKEALA
On to B2, for which the results for the Kd in experiment [1], in experiment [2] and in experiment [3] were 31.5 nM, 219 nM and 2000 nM, respectively.

B3: Mouse GLP-1 receptor (receptor, UniProt O35659 22-463, looked up)
chain: GPRPQGTTVSLSETVQKWREYRRQCQRFLTEAPLLATGLFCNRTFDDYACWPDGPPGSFVNVSCPWYLPWASSVLQGHVYRFCTAEGLWLHKDNSSLPWRDLSECEESKRGERNFPEEQLLSLYIIYTVGYALSFSALVIASAILVGFRHLHCTRNYIHLNLFASFILRALSVFIKDAALKWMYSTAAQQHQWDGLLSYQDSLGCRLVFLLMQYCVAANYYWLLVEGVYLYTLLAFSVFSEQRIFKLYLSIGWGVPLLFVIPWGIVKYLYEDEGCWTRNSNMNYWLIIRLPILFAIGVNFLIFIRVICIVVSKLKANLMCKTDIKCRLAKSTLTLIPLLGTHEVIFAFVMDEHARGTLRFIKLFTELSFTSFQGLMVAILYCFVNNEVQMEFRKCWERWRLEHLNIQRDCSMKPLKCPTSSVSSGATVGSSVYAATCQSSYS
notes: whole, on cells
For B3, in experiment [4], the binding result is “binds”.

B4: Rat GLP-1 receptor (receptor, UniProt P32301 22-463, looked up)
chain: GPRPQGATVSLSETVQKWREYRHQCQRFLTEAPLLATGLFCNRTFDDYACWPDGPPGSFVNVSCPWYLPWASSVLQGHVYRFCTAEGIWLHKDNSSLPWRDLSECEESKQGERNSPEEQLLSLYIIYTVGYALSFSALVIASAILVSFRHLHCTRNYIHLNLFASFILRALSVFIKDAALKWMYSTAAQQHQWDGLLSYQDSLGCRLVFLLMQYCVAANYYWLLVEGVYLYTLLAFSVFSEQRIFKLYLSIGWGVPLLFVIPWGIVKYLYEDEGCWTRNSNMNYWLIIRLPILFAIGVNFLVFIRVICIVIAKLKANLMCKTDIKCRLAKSTLTLIPLLGTHEVIFAFVMDEHARGTLRFVKLFTELSFTSFQGFMVAVLYCFVNNEVQMEFRKSWERWRLERLNIQRDSSMKPLKCPTSSVSSGATVGSSVYAATCQNSCS
notes: whole, on cells
For B4, in experiment [4], the binding result is recorded as “binds”.

The values are drawn from patent US20120100141A1 (GlaxoSmithKline, published 2012).
